From the supplement of paper PMC10567573 come the findings set out here.

The labels stand for the following.
B1: SFRS1 (parent)
chain: RDIDLKNRRGGPPFAFVEFEDPRD
B2: ALKBH7 (parent)
chain: SVICRSLPEGMGPGESGQPPPAC
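Note: lentivirally expressed fusions sorted by FACS into six bins by GFP to DsRed ratio, PSI derived from sequencing read proportions per bin multiplied by bin number.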

The variants in the first data set derive from B1. The experiment in a line: protein stability index of a GFP-peptide fusion (GPS, HEK-293T) (PSI 1-6); higher = more stable. The note with it: c terminus: a fixed tail appended.
With RDIDLKNTRGGPPFAFVEFEDPRD [R8T], the protein stability index amounted to 4.33.

Regarding RDIDLKNYRGGPPFAFVEFEDPRD [R8Y], the protein stability index was 3.96.

As for RDIDLKNMRGGPPFAFVEFEDPRD [R8M], the protein stability index worked out at 4.12.

RDIDLKNVRGGPPFAFVEFEDPRD [R8V]: the protein stability index turned out to be 4.17.

For RDIDLKNDRGGPPFAFVEFEDPRD [R8D], the protein stability index is 4.42.

Consider RDIDLKNKRGGPPFAFVEFEDPRD [R8K], for which the protein stability index came to 4.13.

For RDIDLKNQRGGPPFAFVEFEDPRD [R8Q], the protein stability index stood at 4.18.

Regarding RDIDLKNCRGGPPFAFVEFEDPRD [R8C], the protein stability index turned out to be 4.23.

Consider RDIDLKNIRGGPPFAFVEFEDPRD [R8I], for which the protein stability index is 4.08.

Regarding RDIDVKNRRGGPPFAFVEFEDPRD [L5V], the protein stability index worked out at 3.94.

Take RDIDSKNRRGGPPFAFVEFEDPRD [L5S]: the protein stability index amounted to 4.06.

On to RDIDEKNRRGGPPFAFVEFEDPRD [L5E], for which the protein stability index came to 4.49.

Turning to RDIDMKNRRGGPPFAFVEFEDPRD [L5M], the protein stability index worked out at 3.93.

Turning to RDIDNKNRRGGPPFAFVEFEDPRD [L5N], the protein stability index turned out to be 3.89.

Regarding RDIDAKNRRGGPPFAFVEFEDPRD [L5A], the protein stability index turned out to be 4.09.

For RDIDWKNRRGGPPFAFVEFEDPRD [L5W], the protein stability index was 3.41.

RDIDQKNRRGGPPFAFVEFEDPRD [L5Q]: the protein stability index came out at 4.13.

In the case of RDIDYKNRRGGPPFAFVEFEDPRD [L5Y], the protein stability index was found to be 3.3.

As for RDIDTKNRRGGPPFAFVEFEDPRD [L5T], the protein stability index worked out at 3.72.

Take RDIDPKNRRGGPPFAFVEFEDPRD [L5P]: the protein stability index worked out at 3.68.

With RDIDRKNRRGGPPFAFVEFEDPRD [L5R], the protein stability index came out at 3.35.

For the variant RDIDGKNRRGGPPFAFVEFEDPRD [L5G], the protein stability index turned out to be 3.74.

Regarding RDIDKKNRRGGPPFAFVEFEDPRD [L5K], the protein stability index amounted to 3.81.

For the variant RDIDHKNRRGGPPFAFVEFEDPRD [L5H], the protein stability index was 3.59.

Consider RDIDCKNRRGGPPFAFVEFEDPRD [L5C], for which the protein stability index turned out to be 3.11.

With RDIDIKNRRGGPPFAFVEFEDPRD [L5I], the protein stability index is 3.67.

For the variant RDIDDKNRRGGPPFAFVEFEDPRD [L5D], the protein stability index turned out to be 4.49.

Take RDIDFKNRRGGPPFAFVEFEDPRD [L5F]: the protein stability index was determined as 3.35.

As to RVIDLKNRRGGPPFAFVEFEDPRD [D2V], the protein stability index came to 3.28.

Take RNIDLKNRRGGPPFAFVEFEDPRD [D2N]: the protein stability index worked out at 3.41.

For the variant RTIDLKNRRGGPPFAFVEFEDPRD [D2T], the protein stability index came to 3.19.

On to RYIDLKNRRGGPPFAFVEFEDPRD [D2Y], for which the protein stability index was determined as 2.76.

Consider RLIDLKNRRGGPPFAFVEFEDPRD [D2L], for which the protein stability index was 2.62.

With RMIDLKNRRGGPPFAFVEFEDPRD [D2M], the protein stability index was determined as 3.29.

As to RAIDLKNRRGGPPFAFVEFEDPRD [D2A], the protein stability index came to 2.59.

Turning to RIIDLKNRRGGPPFAFVEFEDPRD [D2I], the protein stability index was 2.68.

As to RHIDLKNRRGGPPFAFVEFEDPRD [D2H], the protein stability index was 3.19.

Regarding REIDLKNRRGGPPFAFVEFEDPRD [D2E], the protein stability index turned out to be 4.06.

As for RRIDLKNRRGGPPFAFVEFEDPRD [D2R], the protein stability index is 3.34.

On to RSIDLKNRRGGPPFAFVEFEDPRD [D2S], for which the protein stability index came to 3.6.

RPIDLKNRRGGPPFAFVEFEDPRD [D2P]: the protein stability index was 3.51.

With RCIDLKNRRGGPPFAFVEFEDPRD [D2C], the protein stability index was determined as 3.1.

For RQIDLKNRRGGPPFAFVEFEDPRD [D2Q], the protein stability index worked out at 3.25.

In the case of RGIDLKNRRGGPPFAFVEFEDPRD [D2G], the protein stability index is 3.06.

On to RKIDLKNRRGGPPFAFVEFEDPRD [D2K], for which the protein stability index came out at 3.12.

For the variant RFIDLKNRRGGPPFAFVEFEDPRD [D2F], the protein stability index was found to be 2.91.

Regarding RWIDLKNRRGGPPFAFVEFEDPRD [D2W], the protein stability index stood at 2.1.

On to RDIDLKDRRGGPPFAFVEFEDPRD [N7D], for which the protein stability index came to 4.54.

RDIDLKWRRGGPPFAFVEFEDPRD [N7W]: the protein stability index was 3.28.

Consider RDIDLKIRRGGPPFAFVEFEDPRD [N7I], for which the protein stability index was found to be 3.63.

On to RDIDLKHRRGGPPFAFVEFEDPRD [N7H], for which the protein stability index came out at 3.61.

Take RDIDLKYRRGGPPFAFVEFEDPRD [N7Y]: the protein stability index stood at 3.02.

As to RDIDLKRRRGGPPFAFVEFEDPRD [N7R], the protein stability index is 3.1.

As for RDIDLKTRRGGPPFAFVEFEDPRD [N7T], the protein stability index came to 3.73.

As to RDIDLKVRRGGPPFAFVEFEDPRD [N7V], the protein stability index was 3.39.

In the case of RDIDLKGRRGGPPFAFVEFEDPRD [N7G], the protein stability index was 4.16.

For the variant RDIDLKSRRGGPPFAFVEFEDPRD [N7S], the protein stability index came out at 3.5.

Regarding RDIDLKKRRGGPPFAFVEFEDPRD [N7K], the protein stability index is 3.41.

Regarding RDIDLKQRRGGPPFAFVEFEDPRD [N7Q], the protein stability index came to 3.56.

With RDIDLKERRGGPPFAFVEFEDPRD [N7E], the protein stability index turned out to be 4.26.

As to RDIDLKFRRGGPPFAFVEFEDPRD [N7F], the protein stability index is 2.76.

Take RDIDLKMRRGGPPFAFVEFEDPRD [N7M]: the protein stability index amounted to 3.26.

In the case of RDIDLKARRGGPPFAFVEFEDPRD [N7A], the protein stability index stood at 3.61.

Consider RDIDLKCRRGGPPFAFVEFEDPRD [N7C], for which the protein stability index worked out at 3.56.

For the variant RDIDLKPRRGGPPFAFVEFEDPRD [N7P], the protein stability index came to 3.78.

RDIDLKLRRGGPPFAFVEFEDPRD [N7L]: the protein stability index turned out to be 3.39.

In the next data set the parent is B2. The data set is described as above. To be noted: c terminus: native.
Take SVICRSLPEGMGPGESGQPPPLC [A22L]: the protein stability index amounted to 4.3.

SVICRSLPEGMGPGESGQPPPYC [A22Y]: the protein stability index came out at 4.68.

Turning to SVICRSLPEGMGPGESGQPPPMC [A22M], the protein stability index was found to be 4.74.

For SVICRSLPEGMGPGESGQPPPNC [A22N], the protein stability index amounted to 5.43.

SVICRSLPEGMGPGESGQPPPWC [A22W]: the protein stability index was found to be 4.77.

Take SVICRSLPEGMGPGESGQPPPHC [A22H]: the protein stability index stood at 4.75.

On to SVICRSLPEGMGPGESGQPPPVC [A22V], for which the protein stability index stood at 3.77.

Regarding SVICRSLPEGMGPGESGQPPPRC [A22R], the protein stability index came out at 5.

In the case of SVICRSLPEGMGPGESGQPPPKC [A22K], the protein stability index came to 5.64.

Take SVICRSLPEGMGPGESGQPPPTC [A22T]: the protein stability index stood at 4.77.

For the variant SVICRSLPEGMGPGESGQPPPQC [A22Q], the protein stability index worked out at 4.92.

Turning to SVICRSLPEGMGPGESGQPPPIC [A22I], the protein stability index stood at 3.19.

For the variant SVICRSLPEGMGPGESGQPPPSC [A22S], the protein stability index came to 3.69.

Regarding SVICRSLPEGMGPGESGQPPPAY [C23Y], the protein stability index turned out to be 4.45.

On to SVICRSLPEGMGPGESGQPPPAT [C23T], for which the protein stability index came to 4.52.

With SVICRSLPEGMGPGESGQPPPAN [C23N], the protein stability index was 5.35.

Turning to SVICRSLPEGMGPGESGQPPPAD [C23D], the protein stability index worked out at 4.63.

On to SVICRSLPEGMGPGESGQPPPAH [C23H], for which the protein stability index was 5.02.

Turning to SVICRSLPEGMGPGESGQPPPAV [C23V], the protein stability index stood at 4.54.

SVICRSLPEGMGPGESGQPPPAR [C23R]: the protein stability index is 4.76.

In the case of SVICRSLPEGMGPGESGQPPPAM [C23M], the protein stability index came to 5.48.

For the variant SVICRSLPEGMGPGESGQPPPAQ [C23Q], the protein stability index came out at 3.8.

With SVICRSLPEGMGPGESGQPPPAK [C23K], the protein stability index came to 4.35.

SVICRSLPEGMGPGESGQPPPAS [C23S]: the protein stability index turned out to be 2.99.

For the variant SVICRSLPEGMGPGESGQPPPAW [C23W], the protein stability index is 4.15.

As to SVICRSLPEGMGPGESGQPPPAL [C23L], the protein stability index turned out to be 4.69.

For the variant SVICRSLPEGMGPGESGQPPPAF [C23F], the protein stability index was 4.57.

In the case of SVICRSLPEGMGPGESGQPPPAE [C23E], the protein stability index was determined as 4.31.

Consider SVICRSLPEGMGPGESGQPPPAI [C23I], for which the protein stability index turned out to be 5.17.
